According to the DeepSol protein solubility set:

Test: soluble on expression in E. coli; label from the status in PepcDB or PDB records

With “MGHHHHHHSHMKPNVGQGSTSVQTAMESELGESSATINKRLCKSTIELSENSLLPASSMLTGTQSLLQPHLERVAIDALQLCCLLLPPPNRRKLQLLMRMISRMSQNVDMPKLHDAMGTRSLMIHTFSRCVLCCAEEVDLDELLAGRLVSFLMDHHQEILQVPSYLQTAVEKHLDYLKKGHIENPGDGLFAPLPTYPYCKQISAQEFDEQKVSTSQAAIAELLENIIKNRSLPLKEKRKKLKQFQKEYPLIYQKRFPTTESEAALFGDKPTIKQPMLILRKPKFRSLR” as the sequence, how does the “soluble on expression in E. coli” value read?
Its value is “not soluble”.

Which “soluble on expression in E. coli” value does the source give for “MRPPISSGRIGDGGLDSCPEKKEEEKDSTSRLCSDLSDLRIERIGSTPAFQWISVYTKRPPMKQRFHHNIANSRLSHHAEKGKRDGLFISCVASEANLWALVMDAGTGFTSQVYKFSSTFLPKDWIMKQWEKNYYISSIAGANNGSSLVVMSKGTRYIQQSYKTGDSIPLKWMDKKWKEGFHVTSMTTGGSRWGVVMSRNSGFSEQVMEVDFLNPSEDINRRLESGYMITSMAATADQAALILSIPRRKITDEIQETLRTSSFPSSYVKDKWGKNMFITSICYGRTV” here?
Its value is “soluble”.

With “MSLERKKYNFNSEWRLQIGDFPEAKQSQFDDSRWKAVTLPHAFNEDEAFKVSIEQLTDTVVWYRKHFRIPASGKKQKVFIEFEGVRQAGDFYLNGQYLGKHENGVMAAGFDLTPYIKEGDNVLAVRTDNDWMYREKSTNSKFQWNDRNFNANYGGLPKNVFLYVTDEVYQTLPLYSNLKTTGVYIYAKDIDVKGRTATIHAESEVKNDSREPRQFSYQVVLLDADGKQVKSFEGEKVTLQGGETRVVKAASKVNNLHFWSWGYGYLYTVQTILKDNKNQVFDEVSTRTGFRKTRFAEGKIWLNDRVIQMKGYAQRTSNEWPAVGLSVPAWLSDYSNGLVVKGNGNLVRWMHVTPWKQDVESCDRVGLIQAMPAGDSEKDRTGRQWDQRTELMRDAIIYNRNNPSILFYECGNKGISREHMIEMKAIRDQYDPFGGRAIGSREMLDIREAEYGGEMLYINKSEHHPMWATEYCRDEGLRKYWDEYSYPFHKEGDGPLHRNQPATDYNHNQDMLAIAMIRCWYDYWRERPGTGRRVSSGGAKIIFSDTNTHHRGEENYRRSGVTDPMRIEKDAFFAHQVMWNGWVDTEEDNTYIIGHWNYPANTVKPVYVVSTGEEVELFLNSQSLGKGKREYNFLFTFDNVAFKAGKLEAVSYNKAGKEISRYAVSTVGEPAGLKLTTIQNPEGFHADGADLALIQVEVVDKDGKRCPLDNRTIQFDLKGNAEWRGGIAQGKDNYILNTSLPVECGINRALIRSTTQAGKITLTAKAEGLPSATITLETLPVKVSNGLSTYLPQMTLKGNLDKGKTPLTPSYKDTKRDIRIVSAKAGANNETVNQSFDDNERSEWMNDGKLSTAWITYTLEKEAAIDDICIKLNGWRSRSYPLEVFAGNTMIWSGDTNKSLGYVHLNVEKPVRSKQITIRLKGNTSDQDAFGQITEVAAKAANDMELEAKANKNNANLRIIEIEFLEAIKEGHHHHHH” as the sequence, how does the “soluble on expression in E. coli” value read?
The value was “soluble”.

With “MGHHHHHHSHMSEESDMDKAIKETSILEEYSINWTQKLGAGISGPVRVCVKKSTQERFALKILLDRPKARNEVRLHMMCATHPNIVQIIEVFANSVQFPHESSPRARLLIVMEMMEGGELFHRISQHRHFTEKQASQVTKQIALALRHCHLLNIAHRDLKPENLLFKDNSLDAPVKLCDFGFAKIDQGDLMTPQFTPYYVAPQVLEAQRRHQKEKSGIIPTSPTPYTYNKSCDLWSLGVIIYVMLCGYPPFYSKHHSRTIPKDMRRKIMTGSFEFPEEEWSQISEMAKDVVRKLLKVKPERRLTIEGVLDHPWLNSTEALDNVLPSAQLMMDKAVVAGIQQAHAEQLANMRIQDLKVSLKPLHSVNNPILRKRKLLGTKPKDSVYIHDHENGAEDSNVALEKLRDVIAQCILPQAGENEDEKLNEVMQEAWKYNRECKLLRDTLQSFSWNGRGFTDKVDRLKLAEIVKQVIEEQTTSHESQ” as the sequence, how does the “soluble on expression in E. coli” value read?
Its value is “not soluble”.

With “MLAFKVVISDKEKSVQMEVDPSESRGLIGLTIGDEFDGSIIGLSGYKLKITGGSDKNGFPMKKTVPGARRIRSLVSGGVGYKPRRDGERRRKTFRGNTISDDIVQINTVVIEKLEHHHHHH” as the sequence, how does the “soluble on expression in E. coli” value read?
The value was “not soluble”.

Which “soluble on expression in E. coli” value does the source give for “MGSDKIHHHHHHMEFEVKKTFGKARLGVMKLHHGAVETPVFMPVGTNASVKLLTPRDLEEAGAEIILSNTFHLMLKPGVEIIKLHRGLHNFMGWKRPILTDSGGFQVFSLPKIRIDDEGVVFRSPIDGSKVFLNPEISMEVQIALGSDICMVFDHCPVPDADYEEVKEATERTYRWALRSKKAFKTENQALFGIVQGGIYPDLRRESALQLTSIGFDGYAIGGLSIGEERSLTLEMTEVTVEFLPEDKPRYFMGGGSPELILELVDRGVDMFDSVFPTRIARHGTALTWNGKLNLKASYNKRSLEPVDERCGCYTCKNFTRSYIHHLFDRGEVLGQILLTIHNINFMISLMKEVRRSIESGTFKELKSKVVEVYSSGGVNV” here?
The value was “soluble”.

Which “soluble on expression in E. coli” value does the source give for “SKARTVAGPVGGSLSVQCPYEKEHRTLNKYWCRPPQIFLCDKIVETKGSAGKRNGRVSIRDSPANLSFTVTLENLTEEDAGTYWCGVDTPWLQDFHDPVVEVEVSVFPAS” here?
Its value is “soluble”.

Which “soluble on expression in E. coli” value does the source give for “MQDRIFAFTPKGSLFQLPKGATPIDFAFAVHTNLGAQAVGAKINGRHVPLRTPLGNGDVVEIIKSRTSEPQLEHHHHHH” here?
The value was “not soluble”.

For “MGSDKIHHHHHHMITPTIRGGHEVNYLVAVEGAKVGDAIAIRVERIRVLSKAASSGVDSPREGSFVGDPYVAKKCPVCNEPWPEFEVVGIGEDAIRCKKCGAPVSPFRMINGYTMVFDHEGGVGVTVDKKTAEMIAKNAWEWHALPKNSKQVPILIFAKADIVGVPSRIRPFLGQLGTIPAVDIPDSHNAGDFGYFLINAPHPYAISKEDYETKLTDGHLDVDSVREGAIVIAPVKVEGGGVYAGDAHAMEGDGEVAGHTTDVTAETTVTVEVIKGLNLEGPILLPPEEDLPPLAKPWRKDEWEKVERLAKKFGIEVEPVAPLQIIGSGPTINDAALNGFKRAAKLFGMSVEEVKNRVTITGAVEIGRLPGIVQVSMQVPLRILEKLGIYELVVKHYNLPF”, which “soluble on expression in E. coli” value is on record?
The value was “not soluble”.

For “MSDPADVFDLVGLTEYEATALEQLLSLGRTTAPNLAEASGIPKARVYGVLESLSDRGFIKLIPGRPKEYQPKSPSDILDRAVENRKQSYESFAADMDSYRDAFLAEYEPRFERANEDISPTAELFHVVDVGEPSERETRRLYDDADETLRVITNSFAYLDNVERALAETLDRGVEVNVLFLHPDALPPEKAAVQADIVDRLTAEYPAIDLRFSTEKLPWRGTLVDPSMDYDSGEAILLVEEPDVPNHMRQAAITDNGSFVAGMKRYFDLVWEYESVQRSN”, which “soluble on expression in E. coli” value is on record?
The value was “not soluble”.

For “MEKRIVCLAGDGVGPEVMESAKEVLHMVERLYGHHFHLQDEHFGGVAIDLTGQPLPQRTLAACLASDAVLLGAVGGPRWDGAKERPEKGLLALRKGLGVFANVRPVTVESATAHLSPLKKADEIDFVVVRELTGGIYFSYPKERTDEVATDTLTYHRHEIERIVSCAFQLASKRKKKVTSIDKANVLESSKLWRIVTEEVALRYPDVELEHILVDAAAMELIRNPGRFDVIVTENLFGDILSDEASVLAGSLGMLPSASHAEKGPSLYEPIHGSAPDIAGKNKANPIAMMRSVAMMLGQSFGLTREGCAIEEAISAVLKSGKCTADIGGTETTTSFTKAVMQEMEEQALVGRGR”, which “soluble on expression in E. coli” value is on record?
The value was “not soluble”.

With “MSLADPIKIGVIAEAQAIAGASIPQAAQLAAEEINAKGGIDGRKIEIVSYDNHSSSADSVRAFQRAVNEDKVNAVIASYISEVVLALMPWASRLKTPFVTPGAASNEITKAINKDYEKNKYTFHGYLTSGELAQSVCDAAKDLLVDARQMKSAVIMSEDAAWTKPLDVGYQECLPKVGLKVLDHIRFSPDTTDFTPIFNKIEGSKPDVIITGISHVGVQPTVQWKNQQVPIPMFGIASQATNETFGKDTNNASDGVLYQGVSGPGVAVTSKSVPFAENFKKKYGNYPSYAGYTAYDEVYYIAEAVKRAGSTDGEKLVEALEKTDYEGTIGRVQFYGKDEPFTHGLKYGKGLLTGLMLQWQDGKQVAVWPPEVAKAEGHHHHHH” as the sequence, how does the “soluble on expression in E. coli” value read?
The value was “soluble”.

For “MMENYITSFQLRFCPAAYLHLEQLPSLWRSILPYLPQWRDSAHLNAALLDEFSLDTDYEEPHGLGALPLQPQSQLELLLCRLGLVLHGEAIRRCVLASPLQQLLTLVNQETLRQIIVQHELLIGPWPTHWQRPLPTEIESRTMIQSGLAFWLAAMEPQPQAWCKRLSLRLPLATPSEPWLVAESQRPLAQTLCHKLVKQVTPTCSHLFK”, which “soluble on expression in E. coli” value is on record?
The value was “not soluble”.

For “MSLADRLLDIKRIYHEPGIERFPRARAVLERYPDAERVEVLSHQAIPGLYGNEGNVEDWVRNKREVMVIGEKKSLSARRNERSSDWIAPSTANGCAMACSYCYVPRRKGYANPITVFANIEKITGYLERHAARQGAKPEPNQCDPIDWVYDIGENSDCSADAMVSDNVRDLVDLFGRIPNAKASFATKLVNRDLLTYEPRGGTRVRFSLMPAETSRLVDVRTSKISDRIAAIDDFVEAGYEVHLNFSPVIVHENWIADWADLLEQIADQTNDRTRRQLAAEVIFLTHNEGLHDVNLGWHPKGEELLWRPDLQQLKRSQSGQWNVRYKSPWKGKWVQQMTDLVADRLPDCRIRYAEGHHHHHH”, which “soluble on expression in E. coli” value is on record?
Its value is “not soluble”.

For “MYYLELALGTQEMEAIVGKVTEVNKDTFWPIVKAAGDKPVVLDMFTQWCGPCKAMAPKYEKLAEEYLDVIFLKLDCNQENKTLAKELGIRVVPTFKILKENSVVGEVTGAKYDKLLEAIQAARS”, which “soluble on expression in E. coli” value is on record?
Its value is “soluble”.

With “MGSDKIHHHHHHMDTDLLKTFLEVSRTRHFGKAAENLYLTRSAVSFRVKQLESILGVALFERQRNNIQPTPAGERMLGHAEAVLTAWERAKQDVSLSQLQSTQLAIGAGPNIWDAYLQGYLQGLHVGLPGVALRTEVLPANAMTRQLMDRTLDIAISFDPPKLDQFELVQLGQINLLLVSSLKGQTGTAVLPGQYVKVDWGTAFNIVHAQEYASLPVPTLHTSSARIALDFILNNGGCAFLPEHLVQHALHSGELHHVSGASAISRNVYVAYWAENDRLAQIKQAIDFLRDDGSVFAHATI” as the sequence, how does the “soluble on expression in E. coli” value read?
The value was “not soluble”.

For “MEKAYKILSVQENISHKKAKALIDSGLVSIGGKKLMVARKELPKNTHFSVQKVEKPSVIFEDENILALFKPPFIESYDLASFFKGWALLHRLDKETSGVVLLVKENSEFHLKAKKAFKDRAVKKEYLALTQGIIEEEREINAPILTFKTTKAFSKISKKGQEAVTIITPLKIINKKTLLKVGIKTGRTHQIRVHLKHINHPIIGDTLYNNEPSLAKRLMLHAHKIALLGYEFEAIAPKEFEILEHHHHHH”, which “soluble on expression in E. coli” value is on record?
The value was “soluble”.

Which “soluble on expression in E. coli” value does the source give for “MQVLHVCSEMFPLLKTGGLADVIGALPAAQIADGVDARVLLPAFPDIRRGVTDAQVVSRRDTFAGHITLLFGHYNGVGIYLIDAPHLYDRPGSPYHDTNLFAYTDNVLRFALLGWVGAEMASGLDPFWRPDVVHAHDWHAGLAPAYLAARGRPAKSVFTVHNLAYQGMFYAHHMNDIQLPWSFFNIHGLEFNGQISFLKAGLYYADHITAVSPTYAREITEPQFAYGMEGLLQQRHREGRLSGVLNGVDEKIWSPETDLLLASRYTRDTLEDKAENKRQLQIAMGLKVDDKVPLFAVVSRLTSQKGLDLVLEALPGLLEQGGQLALLGAGDPVLQEGFLAAAAEYPGQVGVQIGYHEAFSHRIMGGADVILVPSRFEPCGLTQLYGLKYGTLPLVRRTGGLADTVSDCSLENLADGVASGFVFEDSNAWSLLRAIRRAFVLWSRPSLWRFVQRQAMAMDFSWQVAAKSYRELYYRLK” here?
Its value is “not soluble”.

For “MGSDKIHHHHHHMDDIKSQIKELRLGAKIRKLRQDRRLTLQELSELSGLSKPLLSQIENDQVTPPIATLLKISKGLKVGIHYFFEEEEDQQKVVLTRAAQQQPTRRRSGNDAPHGYIYRSLAPGIRHKPMEPFLVEFELTDWSDSFFYRHDGFEFIYLLDGELEFHYGSDVMRLLPGDSIYYDSSEPHGYVSVGEERARAVAVLYTRD”, which “soluble on expression in E. coli” value is on record?
The value was “not soluble”.
